Assay results from article PMC12416549 (2024).

Target: T1, TNFR1 (Homo sapiens, UniProt P19438)
T1 chain: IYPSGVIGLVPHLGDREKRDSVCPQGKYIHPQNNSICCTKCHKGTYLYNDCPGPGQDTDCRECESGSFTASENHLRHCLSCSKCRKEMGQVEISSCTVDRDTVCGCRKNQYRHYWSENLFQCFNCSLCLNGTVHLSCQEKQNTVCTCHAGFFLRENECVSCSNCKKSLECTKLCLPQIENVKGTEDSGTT
Assay: yeast display SC50

| Binder | apparent Kd (screen) |
| --- | --- |
| S59T (designed binder) SMEEEVEKAAKEYEKKKKEAIEKHLEKLKAKDKEAAERFLKELEEAAKEYAKDEAKTMTEEEAKRRAKKYKEKVLLSELSEEEQKEIKEAEEKLVRTILKYVEEAAK | 1.54 nM |
| K17F (designed binder) SMEEEVEKAAKEYEKKFKEAIEKHLEKLKAKDKEAAERFLKELEEAAKEYAKDEAKTMSEEEAKRRAKKYKEKVLLSELSEEEQKEIKEAEEKLVRTILKYVEEAAK | 0.446 nM |
| A90P (designed binder) SMEEEVEKAAKEYEKKKKEAIEKHLEKLKAKDKEAAERFLKELEEAAKEYAKDEAKTMSEEEAKRRAKKYKEKVLLSELSEEEQKEIKEPEEKLVRTILKYVEEAAK | 26.9 nM |
| A36V (designed binder) SMEEEVEKAAKEYEKKKKEAIEKHLEKLKAKDKEAVERFLKELEEAAKEYAKDEAKTMSEEEAKRRAKKYKEKVLLSELSEEEQKEIKEAEEKLVRTILKYVEEAAK | 0.446 nM |
| A10T (designed binder) SMEEEVEKATKEYEKKKKEAIEKHLEKLKAKDKEAAERFLKELEEAAKEYAKDEAKTMSEEEAKRRAKKYKEKVLLSELSEEEQKEIKEAEEKLVRTILKYVEEAAK | 0.446 nM |
| L40A (designed binder) SMEEEVEKAAKEYEKKKKEAIEKHLEKLKAKDKEAAERFAKELEEAAKEYAKDEAKTMSEEEAKRRAKKYKEKVLLSELSEEEQKEIKEAEEKLVRTILKYVEEAAK | 0.446 nM |
| E89Y (designed binder) SMEEEVEKAAKEYEKKKKEAIEKHLEKLKAKDKEAAERFLKELEEAAKEYAKDEAKTMSEEEAKRRAKKYKEKVLLSELSEEEQKEIKYAEEKLVRTILKYVEEAAK | 2.25 nM |
| K52E (designed binder) SMEEEVEKAAKEYEKKKKEAIEKHLEKLKAKDKEAAERFLKELEEAAKEYAEDEAKTMSEEEAKRRAKKYKEKVLLSELSEEEQKEIKEAEEKLVRTILKYVEEAAK | 0.446 nM |
| E4H (designed binder) SMEHEVEKAAKEYEKKKKEAIEKHLEKLKAKDKEAAERFLKELEEAAKEYAKDEAKTMSEEEAKRRAKKYKEKVLLSELSEEEQKEIKEAEEKLVRTILKYVEEAAK | 1.4 nM |
| I21W (designed binder) SMEEEVEKAAKEYEKKKKEAWEKHLEKLKAKDKEAAERFLKELEEAAKEYAKDEAKTMSEEEAKRRAKKYKEKVLLSELSEEEQKEIKEAEEKLVRTILKYVEEAAK | 0.49 nM |
| E78I (designed binder) SMEEEVEKAAKEYEKKKKEAIEKHLEKLKAKDKEAAERFLKELEEAAKEYAKDEAKTMSEEEAKRRAKKYKEKVLLSILSEEEQKEIKEAEEKLVRTILKYVEEAAK | 0.49 nM |
| S59F (designed binder) SMEEEVEKAAKEYEKKKKEAIEKHLEKLKAKDKEAAERFLKELEEAAKEYAKDEAKTMFEEEAKRRAKKYKEKVLLSELSEEEQKEIKEAEEKLVRTILKYVEEAAK | 7.07 nM |
| E4T (designed binder) SMETEVEKAAKEYEKKKKEAIEKHLEKLKAKDKEAAERFLKELEEAAKEYAKDEAKTMSEEEAKRRAKKYKEKVLLSELSEEEQKEIKEAEEKLVRTILKYVEEAAK | 0.446 nM |
| K52H (designed binder) SMEEEVEKAAKEYEKKKKEAIEKHLEKLKAKDKEAAERFLKELEEAAKEYAHDEAKTMSEEEAKRRAKKYKEKVLLSELSEEEQKEIKEAEEKLVRTILKYVEEAAK | 0.956 nM |
| A9M (designed binder) SMEEEVEKMAKEYEKKKKEAIEKHLEKLKAKDKEAAERFLKELEEAAKEYAKDEAKTMSEEEAKRRAKKYKEKVLLSELSEEEQKEIKEAEEKLVRTILKYVEEAAK | 0.446 nM |
| Y70K (designed binder) SMEEEVEKAAKEYEKKKKEAIEKHLEKLKAKDKEAAERFLKELEEAAKEYAKDEAKTMSEEEAKRRAKKKKEKVLLSELSEEEQKEIKEAEEKLVRTILKYVEEAAK | 0.446 nM |
| K8N (designed binder) SMEEEVENAAKEYEKKKKEAIEKHLEKLKAKDKEAAERFLKELEEAAKEYAKDEAKTMSEEEAKRRAKKYKEKVLLSELSEEEQKEIKEAEEKLVRTILKYVEEAAK | 0.718 nM |
| V95M (designed binder) SMEEEVEKAAKEYEKKKKEAIEKHLEKLKAKDKEAAERFLKELEEAAKEYAKDEAKTMSEEEAKRRAKKYKEKVLLSELSEEEQKEIKEAEEKLMRTILKYVEEAAK | 10.4 nM |

| Binder | apparent Kd (screen) |
| --- | --- |
| E62W (designed binder) SMEEEVEKAAKEYEKKKKEAIEKHLEKLKAKDKEAAERFLKELEEAAKEYAKDEAKTMSEEWAKRRAKKYKEKVLLSELSEEEQKEIKEAEEKLVRTILKYVEEAAK | 0.956 nM |
| L28I (designed binder) SMEEEVEKAAKEYEKKKKEAIEKHLEKIKAKDKEAAERFLKELEEAAKEYAKDEAKTMSEEEAKRRAKKYKEKVLLSELSEEEQKEIKEAEEKLVRTILKYVEEAAK | 1.86 nM |
| K31A (designed binder) SMEEEVEKAAKEYEKKKKEAIEKHLEKLKAADKEAAERFLKELEEAAKEYAKDEAKTMSEEEAKRRAKKYKEKVLLSELSEEEQKEIKEAEEKLVRTILKYVEEAAK | 0.718 nM |
| E60L (designed binder) SMEEEVEKAAKEYEKKKKEAIEKHLEKLKAKDKEAAERFLKELEEAAKEYAKDEAKTMSLEEAKRRAKKYKEKVLLSELSEEEQKEIKEAEEKLVRTILKYVEEAAK | 0.446 nM |
| I87F (designed binder) SMEEEVEKAAKEYEKKKKEAIEKHLEKLKAKDKEAAERFLKELEEAAKEYAKDEAKTMSEEEAKRRAKKYKEKVLLSELSEEEQKEFKEAEEKLVRTILKYVEEAAK | 5.84 nM |
| K69E (designed binder) SMEEEVEKAAKEYEKKKKEAIEKHLEKLKAKDKEAAERFLKELEEAAKEYAKDEAKTMSEEEAKRRAKEYKEKVLLSELSEEEQKEIKEAEEKLVRTILKYVEEAAK | 0.593 nM |
| E3D (designed binder) SMDEEVEKAAKEYEKKKKEAIEKHLEKLKAKDKEAAERFLKELEEAAKEYAKDEAKTMSEEEAKRRAKKYKEKVLLSELSEEEQKEIKEAEEKLVRTILKYVEEAAK | 2.48 nM |
| E78H (designed binder) SMEEEVEKAAKEYEKKKKEAIEKHLEKLKAKDKEAAERFLKELEEAAKEYAKDEAKTMSEEEAKRRAKKYKEKVLLSHLSEEEQKEIKEAEEKLVRTILKYVEEAAK | 0.49 nM |
| A63H (designed binder) SMEEEVEKAAKEYEKKKKEAIEKHLEKLKAKDKEAAERFLKELEEAAKEYAKDEAKTMSEEEHKRRAKKYKEKVLLSELSEEEQKEIKEAEEKLVRTILKYVEEAAK | 4.39 nM |
| E92H (designed binder) SMEEEVEKAAKEYEKKKKEAIEKHLEKLKAKDKEAAERFLKELEEAAKEYAKDEAKTMSEEEAKRRAKKYKEKVLLSELSEEEQKEIKEAEHKLVRTILKYVEEAAK | 3 nM |
| S77A (designed binder) SMEEEVEKAAKEYEKKKKEAIEKHLEKLKAKDKEAAERFLKELEEAAKEYAKDEAKTMSEEEAKRRAKKYKEKVLLAELSEEEQKEIKEAEEKLVRTILKYVEEAAK | 0.49 nM |
| E81V (designed binder) SMEEEVEKAAKEYEKKKKEAIEKHLEKLKAKDKEAAERFLKELEEAAKEYAKDEAKTMSEEEAKRRAKKYKEKVLLSELSVEEQKEIKEAEEKLVRTILKYVEEAAK | 0.446 nM |
| K33Q (designed binder) SMEEEVEKAAKEYEKKKKEAIEKHLEKLKAKDQEAAERFLKELEEAAKEYAKDEAKTMSEEEAKRRAKKYKEKVLLSELSEEEQKEIKEAEEKLVRTILKYVEEAAK | 0.869 nM |
| E22A (designed binder) SMEEEVEKAAKEYEKKKKEAIAKHLEKLKAKDKEAAERFLKELEEAAKEYAKDEAKTMSEEEAKRRAKKYKEKVLLSELSEEEQKEIKEAEEKLVRTILKYVEEAAK | 0.539 nM |
| A106S (designed binder) SMEEEVEKAAKEYEKKKKEAIEKHLEKLKAKDKEAAERFLKELEEAAKEYAKDEAKTMSEEEAKRRAKKYKEKVLLSELSEEEQKEIKEAEEKLVRTILKYVEEASK | 0.79 nM |
| E86Y (designed binder) SMEEEVEKAAKEYEKKKKEAIEKHLEKLKAKDKEAAERFLKELEEAAKEYAKDEAKTMSEEEAKRRAKKYKEKVLLSELSEEEQKYIKEAEEKLVRTILKYVEEAAK | 1.4 nM |
| K31W (designed binder) SMEEEVEKAAKEYEKKKKEAIEKHLEKLKAWDKEAAERFLKELEEAAKEYAKDEAKTMSEEEAKRRAKKYKEKVLLSELSEEEQKEIKEAEEKLVRTILKYVEEAAK | 0.79 nM |
